In publication PMC2914181 (Biochemical and biophysical research communications, 2009):

Biological target: the molecule itself
Test: SEC

B1: Campylobacter jejuni β-hydroxyacyl-ACP dehydratase (FabZ) (enzyme, Campylobacter jejuni strain 81-176, UniProt Q9PIM2 1-146, looked up)
chain: MIDVMQIQEILPHRYPFLLVDKITELKVKEVVLGYKNISISDHVFMGHFPGHPIYPGVLILEGMAQTGGVLAFESMEDKVDPKSKVVYFTGIDGAKFRNPVRPGDRLDYEMSVVKNRGNMWIFKGQAFVDGNLVAEAELKAMIVDK
- stoichiometry N: 6
